These results are taken from the supplement of paper PMC5998384.

Data set [1] deals with HeLa Kyoto. Nature of the data set: solubility change mitosis vs G1/S (difference of NP-40 vs SDS log2 ratios) (log2 ratio difference); higher = more soluble in mitosis.
The test system of data set [2] is HeLa Kyoto. Nature of the data set: melting temperature (median over replicates), in situ; higher = more thermally stable.
Data set [3] concerns HeLa Kyoto. Kind of data set: solubility in G1/S (NP-40 vs SDS abundance) (log2 ratio); higher = more soluble. Conditions: cell cycle stage: G1/S.
In data set [4] the test system is HeLa Kyoto. Nature of the data set: thermal stability score vs G1/S (z-score of summed log2 fold changes over temperatures); higher = more thermally stable than in G1/S.
[5] abbreviates: cell cycle stage: early G1 (4.5 h after nocodazole release).
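For melting temperature (median over replicates), in situ in this document: HeLa Kyoto cells synchronized by double thymidine or nocodazole block, proteins quantified by TMT10plex mass spectrometry, three independent biological replicates.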
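For solubility change mitosis vs G1/S (difference of NP-40 vs SDS log2 ratios) in this document: synchronized HeLa Kyoto cells (double thymidine block for G1/S, nocodazole release for mitosis), protein amounts in NP-40 versus SDS lysates quantified by mass spectrometry, three biological replicates.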
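For solubility in G1/S (NP-40 vs SDS abundance) in this document: HeLa Kyoto cells arrested at G1/S by double thymidine block, proteins quantified by TMT10plex mass spectrometry in mild NP-40 versus SDS extracts, three biological replicates.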
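For thermal stability score vs G1/S (z-score of summed log2 fold changes over temperatures) in this document: synchronized HeLa Kyoto cells, proteins quantified by TMT10plex mass spectrometry, three biological replicates, mitosis taken 0.5 h after nocodazole release, G1/S directly after double thymidine block.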

In the case of “MKALDEPPYLTVGTDVSAKYRGAFCEAKIKTAKRLVKVKVTFRHDSSTVEVQDDHIKGPLKVGAIVEVKNLDGAYQEAVINKLTDASWYTVVFDDGDEKTLRRSSLCLKGERHFAESETLDQLPLTNPEHFGTPVIGKKTNRGRRSNHIPEEESSSSSSDEDEDDRKQIDELLGKVVCVDYISLDKKKALWFPALVVCPDCSDEIAVKKDNILVRSFKDGKFTSVPRKDVHEITSDTAPKPDAVLKQAFEQALEFHKSRTIPANWKTELKEDSSSSEAEEEEEEEDDEKEKEDNSSEEEEEIEPFPEERENFLQQLYKFMEDRGTPINKRPVLGYRNLNLFKLFRLVHKLGGFDNIESGAVWKQVYQDLGIPVLNSAAGYNVKCAYKKYLYGFEEYCRSANIEFQMALPEKVVNKQCKECENVKEIKVKEENETEIKEIKMEEERNIIPREEKPIEDEIERKENIKPSLGSKKNLLESIPTHSDQEKEVNIKKPEDNENLDDKDDDTTRVDESLNIKVEAEEEKAKSGDETNKEEDEDDEEAEEEEEEEEEEEDEDDDDNNEEEEFECYPPGMKVQVRYGRGKNQKMYEASIKDSDVEGGEVLYLVHYCGWNVRYDEWIKADKIVRPADKNVPKIKHRKKIKNKLDKEKDKDEKYSPKNCKLRRLSKPPFQTNPSPEMVSKLDLTDAKNSDTAHIKSIEITSILNGLQASESSAEDSEQEDERGAQDMDNNGKEESKIDHLTNNRNDLISKEEQNSSSLLEENKVHADLVISKPVSKSPERLRKDIEVLSEDTDYEEDEVTKKRKDVKKDTTDKSSKPQIKRGKRRYCNTEECLKTGSPGKKEEKAKNKESLCMENSSNSSSDEDEEETKAKMTPTKKYNGLEEKRKSLRTTGFYSGFSEVAEKRIKLLNNSDERLQNSRAKDRKDVWSSIQGQWPKKTLKELFSDSDTEAAASPPHPAPEEGVAEESLQTVAEEESCSPSVELEKPPPVNVDSKPIEEKTVEVNDRKAEFPSSGSNSVLNTPPTTPESPSSVTVTEGSRQQSSVTVSEPLAPNQEEVRSIKSETDSTIEVDSVAGELQDLQSEGNSSPAGFDASVSSSSSNQPEPEHPEKACTGQKRVKDAQGGGSSSKKQKRSHKATVVNNKKKGKGTNSSDSEELSAGESITKSQPVKSVSTGMKSHSTKSPARTQSPGKCGKNGDKDPDLKEPSNRLPKVYKWSFQMSDLENMTSAERITILQEKLQEIRKHYLSLKSEVASIDRRRKRLKKKERESAATSSSSSSPSSSSITAAVMLTLAEPSMSSASQNGMSVECR [ARID4B]”, in the data set on HeLa Kyoto [1], the “solubility change mitosis (log2)” value was 0.0721. Besides, the melting temperature in the data set on HeLa Kyoto [2] (cell cycle stage: G1/S) came to 48.4 °C; with HeLa Kyoto [2] (cell cycle stage: mitosis), 49.6 °C. Besides, the “solubility in G1/S (log2)” value with HeLa Kyoto [3] was -0.276. For the same sequence, the thermal stability score in the data set on HeLa Kyoto [4] (setting [5]) worked out at 0.255; in the data set on HeLa Kyoto [4] (cell cycle stage: mitosis), 0.983.

Consider “MKARRNKKQIPSFRKLIKTSKVKLENKLKNKQFKQQSTLKKYRKEQRKLRQAVKDAVSKKPIPLENPKEKRPGKRIEREEEEEEEALPLDMMDEDDLQLMKDLGQRVSFLTRDLSSSEPVHAKKRKHERIIDKYEKIPRTLQTAPEKELIHLLPIKDKSGIIPQTREKPVTDSNKDEEDQEEERELEEEIIEDPIQELTIEEHLIERKKKLQEKKMHIAALASAILSDPENNIKKLKELRSMLMEQDPDVAVTVRKLVIVSLMELFKDITPSYKIRPLTEAEKSTKTRKETQKLREFEEGLVSQYKFYLENLEQMVKDWKQRKLKKSNVVSLKAYKGLAEVAVKSLCELLVALPHFNFHNNIIVLIVPLMNDMSKLISEMCCEAVKKLFKQDKLGQASLGVIKVISGFVKGRNYEVRPEMLKTFLCLRIKEVEVKKDTEDINKPKKFMTFKEKRKSLSRMQRKWKKAEEKLERELREAEASESTEKKLKLHTETLNIVFVTYFRILKKAQRSPLLPAVLEGLAKFAHLINVEFFDDLLVVLHTLIESGDLSYQESLHCVQTAFHILSGQGDVLNIDPLKFYTHLYKTLFKLHAGATNEGVEIVLQCLDVMLTKRRKQVSQQRALAFIKRLCTLALHVLPNSSIGILATTRILMHTFPKTDLLLDSESQGSGVFLPELDEPEYCNAQNTALWELHALRRHYHPIVQRFAAHLIAGAPSEGSGALKPELSRRSATELFEAYSMAEMTFNPPVESSNPKIKGKFLQGDSFLNEDLNQLIKRYSSEVATESPLDFTKYLKTSLH [NOC3L]”, for which the “solubility change mitosis (log2)” value with HeLa Kyoto [1] was found to be 1.29. Besides, the figures for the melting temperature with HeLa Kyoto [2] (cell cycle stage: G1/S) and in the data set on HeLa Kyoto [2] (cell cycle stage: mitosis) were 49.2 °C and 50 °C, respectively. Moreover, in the data set on HeLa Kyoto [3], the “solubility in G1/S (log2)” value is -1.96. Further, the thermal stability score in the data set with HeLa Kyoto [4] (setting [5]) came out at 0.294; with HeLa Kyoto [4] (cell cycle stage: mitosis), 0.855.

“MKDSENKGASSPDMEPSYGGGLFDMVKGGAGRLFSNLKDNLKDTLKDTSSRVIQSVTSYTKGDLDFTYVTSRIIVMSFPLDNVDIGFRNQVDDIRSFLDSRHLDHYTVYNLSPKSYRTAKFHSRVSECSWPIRQAPSLHNLFAVCRNMYNWLLQNPKNVCVVHCLDGRAASSILVGAMFIFCNLYSTPGPAIRLLYAKRPGIGLSPSHRRYLGYMCDLLADKPYRPHFKPLTIKSITVSPIPFFNKQRNGCRPYCDVLIGETKIYSTCTDFERMKEYRVQDGKIFIPLNITVQGDVVVSMYHLRSTIGSRLQAKVTNTQIFQLQFHTGFIPLDTTVLKFTKPELDACDVPEKYPQLFQVTLDVELQPHDKVIDLTPPWEHYCTKDVNPSILFSSHQEHQDTLALGGQAPIDIPPDNPRHYGQSGFFASLCWQDQKSEKSFCEEDHAALVNQESEQSDDELLTLSSPHGNANGDKPHGVKKPSKKQQEPAAPPPPEDVDLLGLEGSAMSNSFSPPAAPPTNSELLSDLFGGGGAAGPTQAGQSGVEDVFHPSGPASTQSTPRRSATSTSASPTLRVGEGATFDPFGAPSKPSGQDLLGSFLNTSSASSDPFLQPTRSPSPTVHASSTPAVNIQPDVSGGWDWHAKPGGFGMGSKSAATSPTGSSHGTPTHQSKPQTLDPFADLGTLGSSSFASKPTTPTGLGGGFPPLSSPQKASPQPMGGGWQQGGAYNWQQPQPKPQPSMPHSSPQNRPNYNVSFSAMPGGQNERGKGSSNLEGKQKAADFEDLLSGQGFNAHKDKKGPRTIAEMRKEEMAKEMDPEKLKILEWIEGKERNIRALLSTMHTVLWAGETKWKPVGMADLVTPEQVKKVYRKAVLVVHPDKATGQPYEQYAKMIFMELNDAWSEFENQGQKPLY [DNAJC6]”: in the data set with HeLa Kyoto [1], the “solubility change mitosis (log2)” value is -0.112. Further, the melting temperature in the data set on HeLa Kyoto [2] (cell cycle stage: G1/S) came to 51.6 °C; with HeLa Kyoto [2] (cell cycle stage: mitosis), 51.7 °C. Further, the “solubility in G1/S (log2)” value in the data set with HeLa Kyoto [3] was 0.0466. For the same sequence, the thermal stability score in the data set on HeLa Kyoto [4] (setting [5]) is -0.0779; in the data set on HeLa Kyoto [4] (cell cycle stage: mitosis), -0.888.

For the sequence “MKFRAKIVDGACLNHFTRISNMIAKLAKTCTLRISPDKLNFILCDKLANGGVSMWCELEQENFFNEFQMEGVSAENNEIYLELTSENLSRALKTAQNARALKIKLTNKHFPCLTVSVELLSMSSSSRIVTHDIPIKVIPRKLWKDLQEPVVPDPDVSIYLPVLKTMKSVVEKMKNISNHLVIEANLDGELNLKIETELVCVTTHFKDLGNPPLASESTHEDRNVEHMAEVHIDIRKLLQFLAGQQVNPTKALCNIVNNKMVHFDLLHEDVSLQYFIPALS [HUS1]”, the “solubility change mitosis (log2)” value in the data set on HeLa Kyoto [1] is -0.083. In addition, the melting temperature came to 51.8 °C with HeLa Kyoto [2] (cell cycle stage: G1/S) and 51.9 °C in the data set with HeLa Kyoto [2] (cell cycle stage: mitosis). For the same sequence, the “solubility in G1/S (log2)” value in the data set on HeLa Kyoto [3] stood at 0.0659. Besides, the thermal stability score with HeLa Kyoto [4] (setting [5]) was 1.48; in the data set on HeLa Kyoto [4] (cell cycle stage: mitosis) it was 1.19.

Turning to “MKGKEEKEGGARLGAGGGSPEKSPSAQELKEQGNRLFVGRKYPEAAACYGRAITRNPLVAVYYTNRALCYLKMQQHEQALADCRRALELDGQSVKAHFFLGQCQLEMESYDEAIANLQRAYSLAKEQRLNFGDDIPSALRIAKKKRWNSIEERRIHQESELHSYLSRLIAAERERELEECQRNHEGDEDDSHVRAQQACIEAKHDKYMADMDELFSQVDEKRKKRDIPDYLCGKISFELMREPCITPSGITYDRKDIEEHLQRVGHFDPVTRSPLTQEQLIPNLAMKEVIDAFISENGWVEDY [STUB1]”, the “solubility change mitosis (log2)” value in the data set on HeLa Kyoto [1] amounted to 0.0745. The results for the melting temperature in the data set with HeLa Kyoto [2] (cell cycle stage: G1/S) and in the data set on HeLa Kyoto [2] (cell cycle stage: mitosis) were 46.7 °C and 49.5 °C, respectively. Moreover, the “solubility in G1/S (log2)” value in the data set on HeLa Kyoto [3] was determined as 0.397. Besides, the results for the thermal stability score with HeLa Kyoto [4] (setting [5]) and with HeLa Kyoto [4] (cell cycle stage: mitosis) were 1.3 and 2.29, respectively.

Take “MKIKDAKKPSFPWFGMDIGGTLVKLSYFEPIDITAEEEQEEVESLKSIRKYLTSNVAYGSTGIRDVHLELKDLTLFGRRGNLHFIRFPTQDLPTFIQMGRDKNFSTLQTVLCATGGGAYKFEKDFRTIGNLHLHKLDELDCLVKGLLYIDSVSFNGQAECYYFANASEPERCQKMPFNLDDPYPLLVVNIGSGVSILAVHSKDNYKRVTGTSLGGGTFLGLCSLLTGCESFEEALEMASKGDSTQADKLVRDIYGGDYERFGLPGWAVASSFGNMIYKEKRESVSKEDLARATLVTITNNIGSVARMCAVNEKINRVVFVGNFLRVNTLSMKLLAYALDYWSKGQLKALFLEHEGYFGAVGALLGLPNFS [PANK3]”: the “solubility change mitosis (log2)” value with HeLa Kyoto [1] is -0.137. Besides, the melting temperature came out at 53.4 °C in the data set on HeLa Kyoto [2] (cell cycle stage: G1/S) and 53.9 °C in the data set with HeLa Kyoto [2] (cell cycle stage: mitosis). Besides, the “solubility in G1/S (log2)” value with HeLa Kyoto [3] is -0.124. Also, the thermal stability score in the data set with HeLa Kyoto [4] (setting [5]) was -1.56; with HeLa Kyoto [4] (cell cycle stage: mitosis) it was -0.972.

Consider “MKKFFDSRREQGGSGLGSGSSGGGGSTSGLGSGYIGRVFGIGRQQVTVDEVLAEGGFAIVFLVRTSNGMKCALKRMFVNNEHDLQVCKREIQIMRDLSGHKNIVGYIDSSINNVSSGDVWEVLILMDFCRGGQVVNLMNQRLQTGFTENEVLQIFCDTCEAVARLHQCKTPIIHRDLKVENILLHDRGHYVLCDFGSATNKFQNPQTEGVNAVEDEIKKYTTLSYRAPEMVNLYSGKIITTKADIWALGCLLYKLCYFTLPFGESQVAICDGNFTIPDNSRYSQDMHCLIRYMLEPDPDKRPDIYQVSYFSFKLLKKECPIPNVQNSPIPAKLPEPVKASEAAAKKTQPKARLTDPIPTTETSIAPRQRPKAGQTQPNPGILPIQPALTPRKRATVQPPPQAAGSSNQPGLLASVPQPKPQAPPSQPLPQTQAKQPQAPPTPQQTPSTQAQGLPAQAQATPQHQQQLFLKQQQQQQQPPPAQQQPAGTFYQQQQAQTQQFQAVHPATQKPAIAQFPVVSQGGSQQQLMQNFYQQQQQQQQQQQQQQLATALHQQQLMTQQAALQQKPTMAAGQQPQPQPAAAPQPAPAQEPAIQAPVRQQPKVQTTPPPAVQGQKVGSLTPPSSPKTQRAGHRRILSDVTHSAVFGVPASKSTQLLQAAAAEASLNKSKSATTTPSGSPRTSQQNVYNPSEGSTWNPFDDDNFSKLTAEELLNKDFAKLGEGKHPEKLGGSAESLIPGFQSTQGDAFATTSFSAGTAEKRKGGQTVDSGLPLLSVSDPFIPLQVPDAPEKLIEGLKSPDTSLLLPDLLPMTDPFGSTSDAVIEKADVAVESLIPGLEPPVPQRLPSQTESVTSNRTDSLTGEDSLLDCSLLSNPTTDLLEEFAPTAISAPVHKAAEDSNLISGFDVPEGSDKVAEDEFDPIPVLITKNPQGGHSRNSSGSSESSLPNLARSLLLVDQLIDL [AAK1]”, for which, in the data set on HeLa Kyoto [1], the “solubility change mitosis (log2)” value was -0.0894. Also, the melting temperature came to 50.9 °C with HeLa Kyoto [2] (cell cycle stage: G1/S) and 51.8 °C in the data set on HeLa Kyoto [2] (cell cycle stage: mitosis). Also, in the data set with HeLa Kyoto [3], the “solubility in G1/S (log2)” value amounted to 0.192. Besides, the thermal stability score was 0.691 in the data set with HeLa Kyoto [4] (setting [5]) and 0.746 with HeLa Kyoto [4] (cell cycle stage: mitosis).
